The target of experiment [1] is T1, human cytosolic seryl-tRNA synthetase (SerRS), tag-free, purified separately (human, UniProt P49591 1-514). The experiment in a line: 2000 uM NAD+.
Experiment [2] concerns the target T1, human cytosolic seryl-tRNA synthetase …. The experiment can be described thus: 2000 uM ADPR.
The target is the same in experiment [3]. The experiment in a line: 80 uM ADPR.

For one molecule, Kd results are on record in paper PMC13478228 (2026).

B1: human sirtuin 2 (SIRT2), C-terminal His tag (enzyme)
chain: MAEPDPSHPLETQAGKVQEAQDSDSDSEGGAAGGEADMDFLRNLFSQTLSLGSQKERLLDELTLEGVARYMQSERCRRVICLVGAGISTSAGIPDFRSPSTGLYDNLEKYHLPYPEAIFEISYFKKHPEPFFALAKELYPGQFKPTICHYFMRLLKDKGLLLRCYTQNIDTLERIAGLEQEDLVEAHGTFYTSHCVSASCRHEYPLSWMKEKIFSEVTPKCEDCQSLVKPDIVFFGESLPARFFSCMQSDFLKVDLLLVMGTSLQVQPFASLISKAPLSTPRLLINKEKAGQSDPFLGMIMGLGGGMDFDSKKAYRDVAWLGECDQGCLALAELLGWKKELEDLVRREHASIDAQSGAGVPNPSTSASPKKSPPPAKDEARTTEREKPQ
As usually defined, the Kd is a measure of binding affinity in units of concentration. High values mean a looser complex, low ones a tighter complex. Take B1: the equilibrium dissociation constant (Kd) is 0.53 µM in experiment [1], 0.43 µM in experiment [2] and 0.53 µM in experiment [3].
